The target in the assay is PAH2 domain of mSin3A. Description: fluorescence polarisation. For orientation: Fluorescence polarisation rises when a labelled molecule tumbles more slowly, as on binding a larger partner.

What is called IC50 is the concentration that inhibits the measured activity by half. Higher therefore signals weaker potency.

Chain of PAH2 domain of mSin3A (Q60520 whole entry, the tested form may be a part): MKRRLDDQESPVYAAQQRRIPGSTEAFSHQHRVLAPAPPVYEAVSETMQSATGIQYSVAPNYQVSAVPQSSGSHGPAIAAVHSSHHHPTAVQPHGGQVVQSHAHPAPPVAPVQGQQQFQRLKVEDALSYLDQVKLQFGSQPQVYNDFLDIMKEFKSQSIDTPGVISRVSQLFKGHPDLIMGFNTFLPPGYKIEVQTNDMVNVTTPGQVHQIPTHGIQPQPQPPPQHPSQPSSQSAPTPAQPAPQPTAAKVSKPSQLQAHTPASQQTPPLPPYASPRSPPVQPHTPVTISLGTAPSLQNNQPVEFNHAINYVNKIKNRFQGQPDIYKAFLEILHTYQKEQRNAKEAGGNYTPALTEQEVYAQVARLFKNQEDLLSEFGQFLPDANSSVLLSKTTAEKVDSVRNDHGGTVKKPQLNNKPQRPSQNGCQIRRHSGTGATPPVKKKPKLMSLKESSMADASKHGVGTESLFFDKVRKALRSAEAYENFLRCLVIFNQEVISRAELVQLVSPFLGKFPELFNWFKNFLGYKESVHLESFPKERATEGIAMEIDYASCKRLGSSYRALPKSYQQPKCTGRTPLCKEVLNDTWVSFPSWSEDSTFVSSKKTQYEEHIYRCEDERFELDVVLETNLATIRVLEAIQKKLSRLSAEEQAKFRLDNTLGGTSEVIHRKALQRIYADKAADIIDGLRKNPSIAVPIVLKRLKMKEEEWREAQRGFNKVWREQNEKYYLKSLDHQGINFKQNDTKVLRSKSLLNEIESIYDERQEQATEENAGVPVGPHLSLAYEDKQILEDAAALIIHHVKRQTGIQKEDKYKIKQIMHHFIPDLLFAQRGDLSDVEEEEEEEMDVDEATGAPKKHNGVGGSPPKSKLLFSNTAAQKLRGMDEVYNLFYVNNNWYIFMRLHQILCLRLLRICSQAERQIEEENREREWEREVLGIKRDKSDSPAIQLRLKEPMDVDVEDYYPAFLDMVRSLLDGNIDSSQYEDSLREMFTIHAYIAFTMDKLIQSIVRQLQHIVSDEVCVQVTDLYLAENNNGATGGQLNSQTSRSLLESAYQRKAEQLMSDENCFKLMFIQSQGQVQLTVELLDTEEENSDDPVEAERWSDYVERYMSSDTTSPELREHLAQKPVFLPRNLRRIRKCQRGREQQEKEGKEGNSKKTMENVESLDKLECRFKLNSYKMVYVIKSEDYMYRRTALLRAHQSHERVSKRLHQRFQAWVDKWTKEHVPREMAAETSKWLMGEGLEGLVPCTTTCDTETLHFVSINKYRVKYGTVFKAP

Substance PF1-SID peptide gave an IC50 of 15.6 µM.
Tat-SID (MAD-SID peptide) registered an IC50 of 1.26 µM. Compared with the last substance, the IC50 is about 12-fold lower.

For the origin of these results see article PMC4741438, “Targeting the SIN3A-PF1 interaction inhibits epithelial to mesenchymal transition and maintenance of a stem cell phenotype in triple negative breast cancer” (Oncotarget, 2015).
